Data set [1] deals with TDP-43 1-260 (NTD-RRM1-RRM2) (human, UniProt Q13148 1-260). The data set can be described thus: ALPHA.
The target in data set [2] is TDP-43 102-269 (RRM1-RRM2) (human, UniProt Q13148 102-269). Put plainly: ALPHA.
TDP-43 102-269 (RRM1-RRM2), sequence (Q13148 102-269): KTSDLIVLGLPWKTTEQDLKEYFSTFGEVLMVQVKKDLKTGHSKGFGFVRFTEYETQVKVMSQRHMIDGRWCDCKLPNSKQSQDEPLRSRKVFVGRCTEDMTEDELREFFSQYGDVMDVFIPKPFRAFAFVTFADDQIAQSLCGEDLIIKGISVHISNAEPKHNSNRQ

TDP-43 1-260 (NTD-RRM1-RRM2), sequence (Q13148 1-260): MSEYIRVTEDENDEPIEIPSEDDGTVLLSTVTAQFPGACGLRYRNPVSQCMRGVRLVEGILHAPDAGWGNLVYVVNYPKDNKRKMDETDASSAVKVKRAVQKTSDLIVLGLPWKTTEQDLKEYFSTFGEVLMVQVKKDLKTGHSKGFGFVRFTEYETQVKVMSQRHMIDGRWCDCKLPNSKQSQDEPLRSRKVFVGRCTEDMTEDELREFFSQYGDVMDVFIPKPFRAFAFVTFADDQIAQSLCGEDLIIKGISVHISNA

UGUGUGUGUGUG (ssRNA) [(UG)6]: the Kd – broadly, the constant that tells how readily two partners part at equilibrium – came out at 400 ± 40 pM in data set [1] and 730 ± 100 pM in data set [2].

The values above are taken from paper PMC6911355.
